experiment: soluble on expression in E. coli; label from the status in PepcDB or PDB records

Sequence	soluble on expression in E. coli
MGSDKIHHHHHHMTVVDDEKPAQAASGRFAAGEDPAKRDQILDGAKRAFMKHGFDAASMNDVTREAGVSKGTIYVYFQSKEDLFAALINNQKQKFAASMRDILAEETDLHMALRRYALAFTNYILTSEMIPAMRMLLAVQDRMPHLCQSFMRSGPENVRTVLEDYLEVQVKAGRLDIADTELAARQYIELATGAYFKKRLFGEIEVPPPQAEIDYIIDNALHIFLLAYDRKAENGPEAQRAN	not soluble
KQNSLMGITGGLTARYISEKYFAMICGAQVELNISQRGWDELFEVPGENGEPVEDPTRKYTRKMTYLDIPFLAHLAFGNEKGLQFFINAGPQIGLLIGESESMENIDMNALTDTQKAVYGDKIQNKFDYGIAGGGGIEFRTKKAGSFLLEGRYYFALSDFYSTTKKDYFSRAAHGTITVKLTYLFDLK	not soluble
GSHMQQWVDCEFTGRDFRDEDLSRLHTERAMFSECDFSGVNLAESQHRGSAFRNCTFERTTLWHSTFAQCSMLGSVFVACRLRPLTLDDVDFTLAVLGGNDLRGLNLTGCRLRETSLVDTDLRKCVLRGADLSGARTTGARLDDADLRGATVDPVLWRTASLVGARVDVDQAVAFAAAHGLCLAGG	soluble
MGSDKIHHHHHHMRKKSLTLLSDGYLFRKENTIYFENARGKKPLAIEGIYDIYIYGKVSISSQALHYLAQKGIALHFFNHYGYYDGSFYPRESLHSGYLVVNQVEHYLDKDKRLELAKLFIIGGIKNMEWNLLKFKNKTKFSSYIEELNNCNKITEVMNVEGRVRTEYYRLWDETLPDDFKIVKRTRRPPKNEMNALISFLNSRLYPAIITELYNTQLTPTVSYLHEPHERRFSLALDLSEIFKPMIADRLANRLVKQGIIQKKHFRDDLNGVLLNKEGMKVVLEHFNKEMDKTVNHKKLKKNVSKRRLIRLEAYKLVKHLVGQKRYEPLVAWF	not soluble
ALNPNEHQLIKNVFGFIDVTVRQVMTPRTSINAIDIDLPLEYVLNKIVNEGYSRLPVYKDNIDNIIGILYTKDLLKMMNKGEQIKLQSAMRQPYFVPETKKINELLKNLQAKHLHMAIIIDEFGGVSGITTIEDIIEELVGEIQDEHDDEAPVVEQVSA	not soluble
MGSDKIHHHHHHMDINADFSERVMVQSADLDWVASPMPGVDRRMLDRIGGEVARATSIVRYAPGSNFSAHTHTGGEEFVVLDGVFQDEHGDYPAGTYVRNPPTTSHTPGSDEGCTIFVKLWQFDMDDRTQFRRDMAAGGDRSVLHEDAFEIVTYHRLAPGAALEDPADGGAELLVLAGSLTEGGDTLITGGWLRLPESSTMHAVAGSEGATVWMKTGHLPHAKPPAVGRTR	not soluble
GSMADEALFLLLHNEMVSGVYKSAEQGEVENGRCITKLENMGFRVGQGLIERFTKDTARFKDELDIMKFICKDFWTTVFKKQIDNLRTNHQGIYVLQDNKFRLLTQMSAGKQYLEHASKYLAFTCGLIRGGLSNLGIKSIVTAEVSSMPACKFQVMIQKL	soluble
MGTLIMENETNLSEVELRKNLIANINDCKTLLQLGEIYYSSGRYYLAANYLSYVMKMTNDAALYEKSNQLLFLAERAIQINNNDKMFSNFEFLDTLIMELLNCLKNHYYYNIDIELFELMHVRPSVDSIVVNTQNEKEEIVKHLQGLEELYFNLNDSFSKELLIKLLTFRLLGNHKVKMPLNTIDYWKQRKSIPNLIHSSETLQTNYHNWTLQLFDLTPLKYNLRLFYVPMGISATFLDKQYEYNKISPVIKVKEGDVVIDAGGCFGDTALYFAHEVGETGHVYTIEFIPSNLEIMSKNINLNEKLQNNITIVKHPLWNVSNTSLYYKDQGAASFVTFSEESGVTDKVSTITIDNLVVEHKLHKLDFIKMDVEGAEMNALKGAIHSITTFRPTLAIAIYHQISDFVNVMRFINDLNLGYQFYLGHYTVNAQETILFAVAREKMEVSDENEE	soluble
MAHHHHHHMSARMQFPLSQRRHTNIAVVRYSKNGVKLEIACYKNKVISYRSGTENRLDEVLQVERIFANVARGYLASEKEIQTVFGGEMTEAEAIRYMLDHGELQVAQQERAAEVDEMFKDIAVIISQKCINTKTQRPFPPQVVEQALRSIGAAVKLDQSVKKQALGLIHLLIDSDILPIARANMKIRCTTTSEAALEKLRGWCRDNDADVVSDSVTGKTSDGGSGNFGHALLLLMQPNLFRDLDHFVKEALPSGSTIHMVEAAVTEVGDSDVLLDANAVSLANAQPGRAEEEATMAGSRRAAAAPSSSSAGEVNRGCSDGRGGETGMSSNLGQGADNASNGQHQSDGEGKRGRTGKAKGTTRRGHRGRQSNNSDGDDLLDGSTDGAAEGGLGVDHDIAAGLQRLGLDPSHDLQDDSDDDGGRGRGSRGKKKKNASGTGGGPYQSQGAGGRKAGGGAAAVDDDDNAGKGKKGRKNAKSKKVAAAEKAKPGAEGAFSDSDEELMGNRKQRAKKQQETRMQQGGNDWHEEDFDYGEDEEAEVQLS	soluble
MGSDKIHHHHHHMKTYTSNHIVFFSPTHTSAKIARAIGESIGMGRRIEIDLTTDENSSPIEIKDSITIIAVPVYAGRVAPIALQRLRRLKGNNAPAILVAVYGNRDYEDALVELRDETIQLGFTPLAAGAFIGEHSYSRPNMPIAEGRPDVTDLQIAEQFGKDCLTKLEKDETLSDFYLKGNIPYRFVGPSTPAAPVCTEECFACGECIEVCPTHAIALSDEGKIETEITKCIKCCACVKECPNGARVFDTPYTPMLHQKCAARREPELFI	not soluble
MIQIEQIRTGVIQENCYLVYNEEALLIIDPGAEGAKLIQEITRLGKKPAAILLTHTHYDHIGAVEELRHHYQIPVYVSPLEQAWLSNPILNLSGLGRHDDIANIIVQPAEHEFKLTDYEIGGMKFSVVPTPGHSIGSVSFVFDDFVVVGDALFKGSIGRTDLHTGDMQQLLHSITTYLFTLPEEFPVYPGHGDATTIQHEKATNPFFN	not soluble
MGSDKIHHHHHHMTQLANTKFSLNDFELRDGIYFPSDYEQLNNTQHKKTWDAIGKTYYGSQKIEKLADTSPIKQDYTLLTGTPGGTWNKFPLNKSVGSILEIGSGYGRAPLHLSKAKNLRCEKYYGIDISEPLLRRLIKVKQEYNFFPEAEFNLICTSAEILPLEDNSIDLVISNCVFMHIPDAQLRSLLADISRVLKPGGIFVFNHSFHNKSCPSHIIHNFVRKLNPFVRNPVYLKQYSSAEINEMLASAGIQTKCPQYIVEPTEEYAILPETIKGIPVPFAKAINRSLKPSDALKETLAYGFSAYSSQLD	not soluble
MAHHHHHHMWWTAARRRLYYPNQIFLSKDNRRINNSWLPRRLLLVRHGESEANVNREVYSNTPDWKIPLTALGREQAYDCGKRLRNIIQGEKLYIYYSPYARTRQTVSEIRRSFDESQIQGEREDERLREQEMGNYQPLQDMDATWAARNAFGRLYYRFPFGESGADVGDRVSGFFDSLLRESIGLTVPNMNECVVQGAREGLGALDLGPWSTGVDNVPGSSCACSVSTSQGGPVASSTGSESAPPSWTPSFHQATTSSAGLRRTIRRTSPHRPLPLSDFGEAETRGVPPLNDHCASAGEEQNVLIIAHGLLIRLFIGRWFRVPMEVFETMCNPPNCAIIVLERDDRLGRLVMTDMSKSLFGSDPLLQMMRFDGREDTHWYREKFLGIVDPTKAAEEAVVEDDDENHYSMSNAHNSGVGAPAPPPRQRKPSTSTATRASPSTSASASGTSASSAESADVSASTAEHAALAARDRATQPKCPPPCMDCTPNRDYMTFSRRR	not soluble
MSLKFHSPYLPLIKLIIVVKTPLELITDNLLPTIKVLIAKKLRELGMSQNRIAILLGVTQPAVKQYLDEDENFQYEKLRELGLKDEEIEDITQDLVNILNKNDTKSAMYYITDIGLRYLSELKFCKFHKENDKYIPQDCDICRYIYRQNEEERMEIALSMLQNEFVTPLIPEVLSNLAFARKNPKGINDVLAVEGRITKVKGIPTPASNPSWGSSKHLATILLKIMQKDPSIRSIMNIKYDKKIDEALHFLNFRIVYVGPSDENDDESISNLIYSAFYSGIDCVVHLGGKGLEPITYVLGKDPVEVVKKVIEIGKKYRELTENEGHHHHHH	soluble
MDRQGFVPAAYVKKLDSGTGKELVLALYDYQEKSPREVTMKKGDILTLLNSTNKDWWKVEVN	soluble
MSLEDNERVDHLIKEGYEIIQNDEVFSFSTDALLLGYLTEVRKNDKVMDLCSGNGVIPLLLAAKSTQPIEGIEIQEQLVSMARRSFKLNDLNDRLTMHHMDLKDVYQTFQPAQYTLVTCNPPYFKMNQNHQHQKEAHKIARHEIMCNLKDCIEAARHLLKEGGRFIMVHRAERLMDVLTELRHGKIEPKALTLVYSKHDKPAQTIVVEGRKGGNQGLDIRNPLYIYNEDGSYSDEMKGVYYGEGHHHHHH	soluble
